Source: patent US5726147A, “Human mutant tissue factor compositions useful as tissue factor antagonists” (priority 1995, dated 1998)
Changes are numbered by the printed parent chain.

B1: Ile-22 to Ala: full-length human tissue factor mutant, Ile-22 replaced by alanine (protein, UniProt P13726 1-295, looked up, variant I22A)
chain: METPAWPRVPRPETAVARTLLLGWVFAQVAGASGTTNTVAAYNLTWKSTNFKTALEWEPKPVNQVYTVQISTKSGDWKSKCFYTTDTECDLTDEIVKDVKQTYLARVFSYPAGNVESTGSAGEPLYENSPEFTPYLETNLGQPTIQSFEQVGTKVNVTVEDERTLVRRNNTFLSLRDVFGKDLIYTLYYWKSSSSGKKTAKTNTNEFLIDVDKGENYCFSVQAVIPSRTVNRKSTDSPVECMGQEKGEFREIFYIIGAVVFVVIILVIILAISLHKCRKAGVGQSWKENSPLNVS
modifications: full-length
notes: full-length human tissue factor mutant, Ile-22 replaced by alanine
B2: Asp-58 to Ala: human tissue factor mutant, Asp-58 to Ala exchange (EN-strand) (protein, UniProt P13726 33-295, looked up, variant D58A)
Tissue factor: SGTTNTVAAYNLTWKSTNFKTILEWEPKPVNQVYTVQISTKSGDWKSKCFYTTDTECALTDEIVKDVKQTYLARVFSYPAGNVESTGSAGEPLYENSPEFTPYLETNLGQPTIQSFEQVGTKVNVTVEDERTLVRRNNTFLSLRDVFGKDLIYTLYYWKSSSSGKKTAKTNTNEFLIDVDKGENYCFSVQAVIPSRTVNRKSTDSPVECMGQEKGEFREIFYIIGAVVFVVIILVIILAISLHKCRKAGVGQSWKENSPLNVS
B3: Arg-196: human tissue factor mutant, Arg-196 replacement by alanine in the Fc-Gc-loop (protein, UniProt P13726 33-295, looked up, variant R196A)
Tissue factor: B2 Tissue factor with A58D, R196A
B4: Val-64/Tyr-71 to Ala: human tissue factor Val-64/Tyr-71 to Ala double mutant (protein, UniProt P13726 33-295, looked up, variant V64A Y71A)
Tissue factor: B2 Tissue factor with A58D, V64A, Y71A
B5: S16-T17-K20: human tissue factor triple mutant with alanine at positions 16, 17 and 20 (protein, UniProt P13726 33-295, looked up, variant S16A T17A K20A)
Tissue factor: B2 Tissue factor with S16A, T17A, K20A, A58D
B6: K65-D66-K68: human tissue factor triple alanine mutant at positions 65, 66 and 68 (protein, UniProt P13726 33-295, looked up, variant K65A D66A K68A)
Tissue factor: B2 Tissue factor with A58D, K65A, D66A, K68A
B7: Ser-16: full-length human tissue factor mutant, Ser-16 replaced by alanine (protein, UniProt P13726 1-295, looked up, variant S16A)
chain: B1 chain with S48A, A54I
modifications: full-length
notes: full-length human tissue factor mutant, Ser-16 replaced by alanine
B8: Phe-19: full-length human tissue factor mutant, Phe-19 replaced by alanine (protein, UniProt P13726 1-295, looked up, variant F19A)
chain: B1 chain with F51A, A54I
modifications: full-length
notes: full-length human tissue factor mutant, Phe-19 replaced by alanine
B9: Thr-17: full-length human tissue factor mutant, Thr-17 replaced by alanine (protein, UniProt P13726 1-295, looked up, variant T17A)
chain: B1 chain with T49A, A54I
modifications: full-length
notes: full-length human tissue factor mutant, Thr-17 replaced by alanine
B10: S39-T40-S42: human tissue factor triple mutant with alanine at positions 39, 40 and 42 (protein, UniProt P13726 33-295, looked up, variant S39A T40A S42A)
Tissue factor: B2 Tissue factor with S39A, T40A, S42A, A58D
B11: Asn-199: human tissue factor mutant, Asn-199 replaced by alanine (protein, UniProt P13726 33-295, looked up, variant N199A)
Tissue factor: B2 Tissue factor with A58D, N199A
B12: Glu-105: human tissue factor mutant, Ala replacement for Glu-105 (protein, UniProt P13726 33-295, looked up, variant E105A)
Tissue factor: B2 Tissue factor with A58D, E105A
B13: Val-146: human tissue factor mutant, Val-146 exchanged for alanine (protein, UniProt P13726 33-295, looked up, variant V146A)
Tissue factor: B2 Tissue factor with A58D, V146A
B14: Tyr-71: human tissue factor mutant, Tyr-71 replaced by alanine (protein, UniProt P13726 33-295, looked up, variant Y71A)
Tissue factor: B2 Tissue factor with A58D, Y71A
B15: Thr-139/Ser-142: human tissue factor mutant, Thr-139 and Ser-142 exchanged for alanine (protein, UniProt P13726 33-295, looked up, variant T139A S142A)
Tissue factor: B2 Tissue factor with A58D, T139A, S142A
B16: Arg-200/Lys-201: human tissue factor mutant, Arg-200 and Lys-201 replaced by alanine (protein, UniProt P13726 33-295, looked up, variant R200A K201A)
Tissue factor: B2 Tissue factor with A58D, R200A, K201A
B17: Val-198: human tissue factor mutant, Val-198 replaced by alanine (protein, UniProt P13726 33-295, looked up, variant V198A)
Tissue factor: B2 Tissue factor with A58D, V198A
B18: Asp-145: human tissue factor mutant, Asp-145 exchanged for alanine (protein, UniProt P13726 33-295, looked up, variant D145A)
Tissue factor: B2 Tissue factor with A58D, D145A
B19: Phe-147: human tissue factor mutant, Phe-147 exchanged for alanine (protein, UniProt P13726 33-295, looked up, variant F147A)
Tissue factor: B2 Tissue factor with A58D, F147A
B20: Arg-136: human tissue factor mutant, Arg-136 exchanged for alanine (protein, UniProt P13726 33-295, looked up, variant R136A)
Tissue factor: B2 Tissue factor with A58D, R136A
B21: Val-67: human tissue factor mutant, Val-67 replaced by alanine (protein, UniProt P13726 33-295, looked up, variant V67A)
Tissue factor: B2 Tissue factor with A58D, V67A
B22: Arg-131: human tissue factor mutant, Arg-131 exchanged for alanine (protein, UniProt P13726 33-295, looked up, variant R131A)
Tissue factor: B2 Tissue factor with A58D, R131A
B23: Thr-106: human tissue factor mutant, Ala replacement for Thr-106 (protein, UniProt P13726 33-295, looked up, variant T106A)
Tissue factor: B2 Tissue factor with A58D, T106A

System: recombinant VIIa
Assay: Linked chromogenic assay with purified VIIa and factor X, apparent dissociation constant of the TF-VIIa interaction
Format: biochemical
Conditions: full-length Ala mutants, linked chromogenic assay
Method: The lysate was prepared by treating cell pellets with 15 mM octyl-glucopyranoside for 15 minutes at 37 C. followed by a 3-fold dilution. […] Formed TF-VIIa complexes were quantified with substrate factor X added at 100 nM for a fixed time. Samples were then removed from the reaction and quenched in 100 mM EDTA in TBS (20 mM Tris-HCl 140 mM NaCl, pH 7.4). […] The rate of Spectrozyme hydrolysis, measured as the increase in absorbance (mOD/min), was determined at ambient temperature in a kinetic plate reader (Molecular Devices, Mountain View, Calif.) followed by quenching and monitoring of product factor Xa formation using the Spectrozyme FXa.
Enzfitter (Elsevier Biosoft) programs were employed to calculate the KDapp from the experimentally determined bound VIIa, and free VIIa which was obtained by subtracting bound VIIa from the initial VIIa concentration.

Row | change in KDapp for the TF-VIIa interaction compared to wild-type TF (ratio KD mutant/KD wild-type) [fold] | Molecule
1 | 11 | B1
2 | 41 | B2
3 | 3.5 | B3
4 | 2.1 | B4

Same assay, conditions: triple alanine mutants

Row | binding of Factor VIIa | Molecule
5 | not substantially bind Factor VIIa | B5
6 | not substantially bind Factor VIIa | B6

System: coagulation in recalcified plasma
Assay: One stage clotting (coagulation) assay of specific functional activity of full-length TF mutants in CHO cell lysates
Format: biochemical
Conditions: full-length Ala mutant expressed in CHO cells, cell lysate, coagulant activity normalized to antigen, relative to wild-type TF
Method: The full-length TF mutants prepared above were analyzed for function by coagulation assay. […] Coagulation factor deficient plasmas were purchased from George King Bio-medical. The chromogenic substrate, Spectrozyme FXa, was from American Diagnostica Inc. (Greenwich, Conn.).
An alternative approach was to use a polyvalent antibody purified by affinity for capturing TF followed by detection with the TF8-5G9 monoclonal antibody described above.
Initiation of coagulation by wild-type and mutant TF in recalcified plasma was determined after lysis of cell pellets from 2×10^6 cells/ml for each expressed full-length mutant with 15 mM octyl-glucopyranoside in HBS for 15 minutes at 37 C. followed by a 3-fold dilution.
All data represented are based on at least three independent determinations performed in duplicate.

Row | Molecule | loss of function (reduction in specific functional activity as % of wild-type activity)
7 | B7 | more than 70%
8 | B8 | more than 70%
9 | B9 | more than 70%
10 | B1 | 35%
11 | B10 | 43%
12 | B11 | 30-80%
13 | B12 | more than 50%
14 | B13 | 30-50%
15 | B14 | 98%
16 | B15 | 30-50%
17 | B16 | 30-80%
18 | B17 | 30-80%
19 | B18 | 30-50%
20 | B19 | 30-50%
21 | B5 | 98%
22 | B6 | 70%
23 | B20 | 30-50%
24 | B21 | 53%
25 | B22 | 30-50%
26 | B23 | more than 50%

Same assay, conditions: residue substituted at the named position

Row | Molecule | reduction in tissue factor procoagulant cofactor activity when compared to wt-TF [%]
27 | B7 | ≥ 75
28 | B9 | ≥ 75
29 | B11 | ≥ 75
